Results as given in PMC5861428.

Legend:
[1] = test system: Fab BL3-6 S97N (synthetic), PDB:6B14_1+PDB:6B14_2; test: filter binding
[2] = test system: Fab clone 1 (synthetic), PDB:6B14_1+PDB:6B3K_2; test: filter binding
[3] = test system: Fab clone 10 (Fab 10) (synthetic), PDB:6B14_1+PDB:6B3K_2; test: filter binding
[4] = test system: Fab clone 11 (synthetic), PDB:6B14_1+PDB:6B3K_2; test: filter binding
[5] = test system: Fab clone 12 (synthetic), PDB:6B14_1+PDB:6B3K_2; test: filter binding
[6] = test system: Fab clone 13 (synthetic), PDB:6B14_1+PDB:6B3K_2; test: filter binding
[7] = test system: Fab clone 14 (synthetic), PDB:6B14_1+PDB:6B3K_2; test: filter binding
[8] = test system: Fab clone 15 (synthetic), PDB:6B14_1+PDB:6B3K_2; test: filter binding
[9] = test system: Fab clone 17 (synthetic), PDB:6B14_1+PDB:6B3K_2; test: filter binding
[10] = test system: Fab clone 18 (synthetic), PDB:6B14_1+PDB:6B3K_2; test: filter binding
[11] = test system: Fab clone 3 (Fab 3) (synthetic), PDB:6B14_1+PDB:6B3K_2; test: filter binding
[12] = test system: Fab clone 4 (synthetic), PDB:6B14_1+PDB:6B3K_2; test: filter binding
[13] = test system: Fab clone 5 (synthetic), PDB:6B14_1+PDB:6B3K_2; test: filter binding
[14] = test system: Fab clone 6 (synthetic), PDB:6B14_1+PDB:6B3K_2; test: filter binding
[15] = test system: Fab clone 9 (synthetic), PDB:6B14_1+PDB:6B3K_2; test: filter binding
[16] = test system: Fab BL3-6 (synthetic (humanized Fab4D5 framework phage library)), PDB:6B14_1+PDB:6B3K_2; test: filter binding
[17] = test system: Fab clone 2 (synthetic), PDB:6B14_1+PDB:6B3K_2; test: filter binding
[18] = test system: Fab BL3-6 (synthetic (humanized Fab4D5 framework phage library)), PDB:6B14_1+PDB:6B3K_2; test: hydroxyl-radical footprinting

Work on “GGCGACCAUGGAAACACCAUGGUCGC [WT-RNA HP (WT BL3-6 HP)]” yielded a Kd [1] of 13 nM, a Kd [2] of 29 nM and a Kd [3] of 28 nM. The Kd [4] was 13 nM, the Kd [5] was 17 nM and the Kd [6] was 25 nM. The Kd [7] was 58 nM, the Kd [8] was 17 nM and the Kd [9] was 21 nM. The Kd [10] was 22 nM, the Kd [11] was 25 nM and the Kd [12] was 28 nM. The Kd [13] was 28 nM, the Kd [14] was 52 nM and the Kd [15] was 67 nM.
With “GUCCAGUAGGAACACUAUACUACUGGAUAAUCAAAGACAAAUCUGCCCGAAGGGCUUGAGAACAUCGAAACACGAUGCAGAGGUGGCAGCCUCCGGUGGGUUAAAACCCAACGUUCUCAACAAUAGUGA [WT-BLP]” the Kd [16] was 120 nM, the Kd [1] was 5 nM and the Kd [2] was 26 nM. It also gave a Kd [3] of 30 nM, a Kd [4] of 37 nM and a Kd [5] of 37 nM. The Kd [6] was 36 nM, the Kd [7] was 45 nM and the Kd [8] was 34 nM. For the same sequence, the Kd [9] was 42 nM, the Kd [10] was 51 nM and the Kd [17] was 50 nM. The Kd [11] was 28 nM, the Kd [12] was 29 nM and the Kd [13] was 20 nM. It also gave a Kd [14] of 54 nM and a Kd [15] of 66 nM.
Work on “UGCGACCAUGGUGAGACCCGCCAUGGUCGC [N9RNA1 HP (AM HP)]” yielded a Kd [1] of 9 nM, a Kd [2] of 11 nM and a Kd [3] of 9 nM. The Kd [4] was 9 nM, the Kd [5] was 7 nM and the Kd [6] was 11 nM. It also gave a Kd [8] of 10 nM, a Kd [9] of 8 nM and a Kd [10] of 9 nM. The Kd [17] was 10 nM, the Kd [11] was 9 nM and the Kd [12] was 11 nM. The Kd [13] was 8 nM, the Kd [14] was 7 nM and the Kd [15] was 13 nM. For the same sequence, the Kd [18] was 30 nM.
